# Test results: publication PMC4774645
# Key:
# [1] = fluorogenic substrate assay on cell lysate; settings: glycan lost; control: wild type
# [2] = Western blot of cell lysate; settings: glycan lost; control: wild type
# [3] = mCherry fluorescence in media, 32 h time course; settings: glycan lost; control: wild type
# [4] = mCherry co-localisation with organelle-targeted eGFP; settings: glycan lost; control: wild type
# [5] = Western blot of culture media, 24 h; settings: glycan lost; control: wild type
# [6] = mCherry fluorescence in media, 24 h, N38X series; settings: glycan lost; control: wild type
# [7] = Western blot of media, transfected HEK293; settings: control: untreated
# [8] = hMMP-9-mCherry fluorescence microscopy; settings: glycan lost; control: untreated
protein,measurement,setting,value
human matrix metalloproteinase 9 (hMMP-9): N120S (protein) parent chain: MSLWQPLVLVLLVLGCCFAAPRQRQSTLVLFPGDLRTNLTDRQLAEEYLYRYGYTRVAEMRGESKSLGPALLLLQKQLSLPETGELDSATLKAMRTPRCGVPDLGRFQTFEGDLKWHHHNITYWIQNYSEDLPRAVIDDAFARAFALWSAVTPLTFTRVYSRDADIVIQFGVAEHGDGYPFDGKDGLLAHAFPPGPGIQGDAHFDDDELWSLGKGVVVPTRFGNADGAACHFPFIFEGRSYSACTTDGRSDGLPWCSTTANYDTDDRFGFCPSERLYTQDGNADGKPCQFPFIFQGQSYSACTTDGRSDGYRWCATTANYDRDKLFGFCPTRADSTVMGGNSAGELCVFPFTFLGKEYSTCTSEGRGDGRLWCATTSNFDSDKKWGFCPDQGYSLFLVAAHEFGHALGLDHSSVPEALMYPMYRFTEGPPLHKDDVNGIRHLYGPRPEPEPRPPTTTTPQPTAPPTVCPTGPPTVHPSERPTAGPTGPPSAGPTGPPTAGPSTATTVPLSPVDDACNVNIFDAIAEIGNQLYLFKDGKYWRFSEGRGSRPQGPFLIADKWPALPRKLDSVFEERLSKKLFFFSGRQVWVYTGASVLGPRRLDKLGLGADVAQVTGALRSGRGKMLLFSGRRLWRFDVKAQMVDPRSASEVDRMFPGVPLDTHDVFQYREKAYFCQDRFYWRVSSRSELNQVDQVGYVTYDILQCPED,enzymatic_activity,[1],decreases
same,expression_or_secretion,[2],no change
same,"expression_or_secretion, fold_change",[3],decreases
same,localisation_or_trafficking,[4],changes
same,expression_or_secretion,[5],decreases
human matrix metalloproteinase 9 (hMMP-9): N38G (protein) parent chain: MSLWQPLVLVLLVLGCCFAAPRQRQSTLVLFPGDLRTNLTDRQLAEEYLYRYGYTRVAEMRGESKSLGPALLLLQKQLSLPETGELDSATLKAMRTPRCGVPDLGRFQTFEGDLKWHHHNITYWIQNYSEDLPRAVIDDAFARAFALWSAVTPLTFTRVYSRDADIVIQFGVAEHGDGYPFDGKDGLLAHAFPPGPGIQGDAHFDDDELWSLGKGVVVPTRFGNADGAACHFPFIFEGRSYSACTTDGRSDGLPWCSTTANYDTDDRFGFCPSERLYTQDGNADGKPCQFPFIFQGQSYSACTTDGRSDGYRWCATTANYDRDKLFGFCPTRADSTVMGGNSAGELCVFPFTFLGKEYSTCTSEGRGDGRLWCATTSNFDSDKKWGFCPDQGYSLFLVAAHEFGHALGLDHSSVPEALMYPMYRFTEGPPLHKDDVNGIRHLYGPRPEPEPRPPTTTTPQPTAPPTVCPTGPPTVHPSERPTAGPTGPPSAGPTGPPTAGPSTATTVPLSPVDDACNVNIFDAIAEIGNQLYLFKDGKYWRFSEGRGSRPQGPFLIADKWPALPRKLDSVFEERLSKKLFFFSGRQVWVYTGASVLGPRRLDKLGLGADVAQVTGALRSGRGKMLLFSGRRLWRFDVKAQMVDPRSASEVDRMFPGVPLDTHDVFQYREKAYFCQDRFYWRVSSRSELNQVDQVGYVTYDILQCPED,expression_or_secretion,[6],no change
human matrix metalloproteinase 9 (hMMP-9): N38P (protein) parent chain: MSLWQPLVLVLLVLGCCFAAPRQRQSTLVLFPGDLRTNLTDRQLAEEYLYRYGYTRVAEMRGESKSLGPALLLLQKQLSLPETGELDSATLKAMRTPRCGVPDLGRFQTFEGDLKWHHHNITYWIQNYSEDLPRAVIDDAFARAFALWSAVTPLTFTRVYSRDADIVIQFGVAEHGDGYPFDGKDGLLAHAFPPGPGIQGDAHFDDDELWSLGKGVVVPTRFGNADGAACHFPFIFEGRSYSACTTDGRSDGLPWCSTTANYDTDDRFGFCPSERLYTQDGNADGKPCQFPFIFQGQSYSACTTDGRSDGYRWCATTANYDRDKLFGFCPTRADSTVMGGNSAGELCVFPFTFLGKEYSTCTSEGRGDGRLWCATTSNFDSDKKWGFCPDQGYSLFLVAAHEFGHALGLDHSSVPEALMYPMYRFTEGPPLHKDDVNGIRHLYGPRPEPEPRPPTTTTPQPTAPPTVCPTGPPTVHPSERPTAGPTGPPSAGPTGPPTAGPSTATTVPLSPVDDACNVNIFDAIAEIGNQLYLFKDGKYWRFSEGRGSRPQGPFLIADKWPALPRKLDSVFEERLSKKLFFFSGRQVWVYTGASVLGPRRLDKLGLGADVAQVTGALRSGRGKMLLFSGRRLWRFDVKAQMVDPRSASEVDRMFPGVPLDTHDVFQYREKAYFCQDRFYWRVSSRSELNQVDQVGYVTYDILQCPED,expression_or_secretion,[6],no change
human matrix metalloproteinase 9 (hMMP-9): tunicamycin (protein) parent chain: MSLWQPLVLVLLVLGCCFAAPRQRQSTLVLFPGDLRTNLTDRQLAEEYLYRYGYTRVAEMRGESKSLGPALLLLQKQLSLPETGELDSATLKAMRTPRCGVPDLGRFQTFEGDLKWHHHNITYWIQNYSEDLPRAVIDDAFARAFALWSAVTPLTFTRVYSRDADIVIQFGVAEHGDGYPFDGKDGLLAHAFPPGPGIQGDAHFDDDELWSLGKGVVVPTRFGNADGAACHFPFIFEGRSYSACTTDGRSDGLPWCSTTANYDTDDRFGFCPSERLYTQDGNADGKPCQFPFIFQGQSYSACTTDGRSDGYRWCATTANYDRDKLFGFCPTRADSTVMGGNSAGELCVFPFTFLGKEYSTCTSEGRGDGRLWCATTSNFDSDKKWGFCPDQGYSLFLVAAHEFGHALGLDHSSVPEALMYPMYRFTEGPPLHKDDVNGIRHLYGPRPEPEPRPPTTTTPQPTAPPTVCPTGPPTVHPSERPTAGPTGPPSAGPTGPPTAGPSTATTVPLSPVDDACNVNIFDAIAEIGNQLYLFKDGKYWRFSEGRGSRPQGPFLIADKWPALPRKLDSVFEERLSKKLFFFSGRQVWVYTGASVLGPRRLDKLGLGADVAQVTGALRSGRGKMLLFSGRRLWRFDVKAQMVDPRSASEVDRMFPGVPLDTHDVFQYREKAYFCQDRFYWRVSSRSELNQVDQVGYVTYDILQCPED,expression_or_secretion,[7]; glycan lost,decreases
human matrix metalloproteinase 9 (hMMP-9): N38E (protein) parent chain: MSLWQPLVLVLLVLGCCFAAPRQRQSTLVLFPGDLRTNLTDRQLAEEYLYRYGYTRVAEMRGESKSLGPALLLLQKQLSLPETGELDSATLKAMRTPRCGVPDLGRFQTFEGDLKWHHHNITYWIQNYSEDLPRAVIDDAFARAFALWSAVTPLTFTRVYSRDADIVIQFGVAEHGDGYPFDGKDGLLAHAFPPGPGIQGDAHFDDDELWSLGKGVVVPTRFGNADGAACHFPFIFEGRSYSACTTDGRSDGLPWCSTTANYDTDDRFGFCPSERLYTQDGNADGKPCQFPFIFQGQSYSACTTDGRSDGYRWCATTANYDRDKLFGFCPTRADSTVMGGNSAGELCVFPFTFLGKEYSTCTSEGRGDGRLWCATTSNFDSDKKWGFCPDQGYSLFLVAAHEFGHALGLDHSSVPEALMYPMYRFTEGPPLHKDDVNGIRHLYGPRPEPEPRPPTTTTPQPTAPPTVCPTGPPTVHPSERPTAGPTGPPSAGPTGPPTAGPSTATTVPLSPVDDACNVNIFDAIAEIGNQLYLFKDGKYWRFSEGRGSRPQGPFLIADKWPALPRKLDSVFEERLSKKLFFFSGRQVWVYTGASVLGPRRLDKLGLGADVAQVTGALRSGRGKMLLFSGRRLWRFDVKAQMVDPRSASEVDRMFPGVPLDTHDVFQYREKAYFCQDRFYWRVSSRSELNQVDQVGYVTYDILQCPED,expression_or_secretion,[6],no change
human matrix metalloproteinase 9 (hMMP-9): tunicamycin (250 ng/ml) (protein) parent chain: MSLWQPLVLVLLVLGCCFAAPRQRQSTLVLFPGDLRTNLTDRQLAEEYLYRYGYTRVAEMRGESKSLGPALLLLQKQLSLPETGELDSATLKAMRTPRCGVPDLGRFQTFEGDLKWHHHNITYWIQNYSEDLPRAVIDDAFARAFALWSAVTPLTFTRVYSRDADIVIQFGVAEHGDGYPFDGKDGLLAHAFPPGPGIQGDAHFDDDELWSLGKGVVVPTRFGNADGAACHFPFIFEGRSYSACTTDGRSDGLPWCSTTANYDTDDRFGFCPSERLYTQDGNADGKPCQFPFIFQGQSYSACTTDGRSDGYRWCATTANYDRDKLFGFCPTRADSTVMGGNSAGELCVFPFTFLGKEYSTCTSEGRGDGRLWCATTSNFDSDKKWGFCPDQGYSLFLVAAHEFGHALGLDHSSVPEALMYPMYRFTEGPPLHKDDVNGIRHLYGPRPEPEPRPPTTTTPQPTAPPTVCPTGPPTVHPSERPTAGPTGPPSAGPTGPPTAGPSTATTVPLSPVDDACNVNIFDAIAEIGNQLYLFKDGKYWRFSEGRGSRPQGPFLIADKWPALPRKLDSVFEERLSKKLFFFSGRQVWVYTGASVLGPRRLDKLGLGADVAQVTGALRSGRGKMLLFSGRRLWRFDVKAQMVDPRSASEVDRMFPGVPLDTHDVFQYREKAYFCQDRFYWRVSSRSELNQVDQVGYVTYDILQCPED,localisation_or_trafficking,[8],changes
human matrix metalloproteinase 9 (hMMP-9): castanospermine (CST) (protein) parent chain: MSLWQPLVLVLLVLGCCFAAPRQRQSTLVLFPGDLRTNLTDRQLAEEYLYRYGYTRVAEMRGESKSLGPALLLLQKQLSLPETGELDSATLKAMRTPRCGVPDLGRFQTFEGDLKWHHHNITYWIQNYSEDLPRAVIDDAFARAFALWSAVTPLTFTRVYSRDADIVIQFGVAEHGDGYPFDGKDGLLAHAFPPGPGIQGDAHFDDDELWSLGKGVVVPTRFGNADGAACHFPFIFEGRSYSACTTDGRSDGLPWCSTTANYDTDDRFGFCPSERLYTQDGNADGKPCQFPFIFQGQSYSACTTDGRSDGYRWCATTANYDRDKLFGFCPTRADSTVMGGNSAGELCVFPFTFLGKEYSTCTSEGRGDGRLWCATTSNFDSDKKWGFCPDQGYSLFLVAAHEFGHALGLDHSSVPEALMYPMYRFTEGPPLHKDDVNGIRHLYGPRPEPEPRPPTTTTPQPTAPPTVCPTGPPTVHPSERPTAGPTGPPSAGPTGPPTAGPSTATTVPLSPVDDACNVNIFDAIAEIGNQLYLFKDGKYWRFSEGRGSRPQGPFLIADKWPALPRKLDSVFEERLSKKLFFFSGRQVWVYTGASVLGPRRLDKLGLGADVAQVTGALRSGRGKMLLFSGRRLWRFDVKAQMVDPRSASEVDRMFPGVPLDTHDVFQYREKAYFCQDRFYWRVSSRSELNQVDQVGYVTYDILQCPED,expression_or_secretion,[7]; glycan changed form,decreases
human matrix metalloproteinase 9 (hMMP-9): mS38/ N120S (protein) parent chain: MSLWQPLVLVLLVLGCCFAAPRQRQSTLVLFPGDLRTNLTDRQLAEEYLYRYGYTRVAEMRGESKSLGPALLLLQKQLSLPETGELDSATLKAMRTPRCGVPDLGRFQTFEGDLKWHHHNITYWIQNYSEDLPRAVIDDAFARAFALWSAVTPLTFTRVYSRDADIVIQFGVAEHGDGYPFDGKDGLLAHAFPPGPGIQGDAHFDDDELWSLGKGVVVPTRFGNADGAACHFPFIFEGRSYSACTTDGRSDGLPWCSTTANYDTDDRFGFCPSERLYTQDGNADGKPCQFPFIFQGQSYSACTTDGRSDGYRWCATTANYDRDKLFGFCPTRADSTVMGGNSAGELCVFPFTFLGKEYSTCTSEGRGDGRLWCATTSNFDSDKKWGFCPDQGYSLFLVAAHEFGHALGLDHSSVPEALMYPMYRFTEGPPLHKDDVNGIRHLYGPRPEPEPRPPTTTTPQPTAPPTVCPTGPPTVHPSERPTAGPTGPPSAGPTGPPTAGPSTATTVPLSPVDDACNVNIFDAIAEIGNQLYLFKDGKYWRFSEGRGSRPQGPFLIADKWPALPRKLDSVFEERLSKKLFFFSGRQVWVYTGASVLGPRRLDKLGLGADVAQVTGALRSGRGKMLLFSGRRLWRFDVKAQMVDPRSASEVDRMFPGVPLDTHDVFQYREKAYFCQDRFYWRVSSRSELNQVDQVGYVTYDILQCPED,enzymatic_activity,[1],decreases
same,expression_or_secretion,[2],no change
same,"expression_or_secretion, fold_change",[3],decreases
same,localisation_or_trafficking,[4],changes
same,expression_or_secretion,[5],abolishes
